± gives the uncertainty stated by the source.
Assay: self-splicing fitness, log relative to wild type (ln ratio); higher = more splicing; Tetrahymena group I intron in knt gene, E. coli kanamycin selection, DiMSum; sequences stand for … in CUCUCU…GGAGGGAAAAGUUAUCAGGCAUGCACCUGGUAGCUAGUCUUUAAACCAAUAGAUUGCAUCGGUUUAAAAGGCAAGACCGUCAAAUUGCGGGAAAGGGGUCAACAGCCGUUCAGUACCAAGUCUCAGGGGAAACUUUGAGAUGGCCUUGCAAAGGGUAUGGUAAUAAGCUGACGGACAUGGUCCUAACCACGCAGCCAAGUCCUAAGUCAACAGAUCUUCUGUUGAUAUGGAUGCAGUUCACAGACUAAAUGUCGGUCGGGGAAGAUGUAUUCUUCUCAUAAGAUAUAGUCGGACCUCUCCUUAAUGGGAGCUAGCGGAUGAAGUGAUGCAACACUGGAGCCGCUGGGAACUAAUUUGUAUGCGAAAGUAUAUUGAUUAGUUUUGGAGUACUCGUGGUCG
Method in brief: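 Six replicate transformations of E. coli BL21(DE3) with a pET-22b(+) library were grown overnight at 37°C or 30°C. The library randomised all eight P1ex-region intron nucleotides, the intron lying in the knt kanamycin-resistance gene, and plates were LB agar with or without 25 μg/mL kanamycin plus 100 μg/mL carbenicillin, 50 μM IPTG and 0.2% rhamnose. Pooled colonies were amplicon-sequenced on an Illumina HiSeq 2500, and fitness is the DiMSum error-weighted combination of wild-type-normalised replicate fold changes, kanamycin versus none.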

Sequence	self-splicing fitness (ln) (30 °C)	self-splicing fitness (ln) (37 °C)
CUAGAGCAAUAUUACGAGUG	-0.496 ± 0.067	-0.868 ± 0.085
CUAGAGCAAUAUUACGAUUU	-3.17 ± 0.2	-1.48 ± 0.25
CUAGAGCAAUAUUACGCAAU	-3.77 ± 0.22	-3.08 ± 0.34
CUAGAGCAAUAUUACGCAGC	-3.55 ± 0.38	-3.32 ± 0.46
CUAGAGCAAUAUUACGCAUG	-0.244 ± 0.092	0.532 ± 0.1
CUAGAGCAAUAUUACGCGGA	–	-1.33 ± 0.36
CUAGAGCAAUAUUACGCGUU	-4.14 ± 0.24	-2.46 ± 0.27
CUAGAGCAAUAUUACGGAGC	–	-3.62 ± 0.34
CUAGAGCAAUAUUACGGGAA	-4.25 ± 0.35	-2.45 ± 0.45
CUAGAGCAAUAUUACGGGAC	-2.5 ± 0.16	-1.05 ± 0.18
CUAGAGCAAUAUUACGGUUG	-0.207 ± 0.056	-0.329 ± 0.074
CUAGAGCAAUAUUACGGUUU	-4.03 ± 0.31	–
CUAGAGCAAUAUUACGUACU	-3.83 ± 0.3	-3.27 ± 0.43
CUAGAGCAAUAUUACGUCGA	-3.94 ± 0.28	-2.34 ± 0.28
CUAGAGCAAUAUUACGUGGG	-0.857 ± 0.13	-0.906 ± 0.16
CUAGAGCAAUAUUACGUUAC	-2.88 ± 0.27	–
CUAGAGCAAUAUUACGUUCG	-1.1 ± 0.047	-0.578 ± 0.076
CUAUAGCAAUAUUACGACUA	-1.87 ± 0.47	–
CUAUAGCAAUAUUACGAGAU	-3.91 ± 0.42	0.449 ± 0.18
CUAUAGCAAUAUUACGAGGC	-3.06 ± 0.35	–
CUAUAGCAAUAUUACGAUGG	-3.44 ± 0.24	-1.18 ± 0.14
CUAUAGCAAUAUUACGCCAC	–	-1.21 ± 0.42
CUAUAGCAAUAUUACGCCUC	-3.66 ± 0.32	-3.15 ± 0.37
CUAUAGCAAUAUUACGCGAC	-1.89 ± 0.18	0.00503 ± 0.2
CUAUAGCAAUAUUACGCGGU	-3.7 ± 0.24	-2.29 ± 0.22

Sequence	self-splicing fitness (ln) (30 °C)	self-splicing fitness (ln) (37 °C)
CUAUAGCAAUAUUACGCGUU	-4.27 ± 0.42	-2.18 ± 0.3
CUAUAGCAAUAUUACGCUAU	-2.77 ± 0.15	-1.72 ± 0.27
CUAUAGCAAUAUUACGGAAG	-1.87 ± 0.12	-0.957 ± 0.13
CUAUAGCAAUAUUACGGGGG	-2.16 ± 0.23	-3.09 ± 0.43
CUAUAGCAAUAUUACGGUCC	-3.69 ± 0.4	-2.56 ± 0.46
CUAUAGCAAUAUUACGGUUA	-2.91 ± 0.2	-2.84 ± 0.19
CUAUAGCAAUAUUACGUAUA	-3.27 ± 0.42	-2.56 ± 0.37
CUAUAGCAAUAUUACGUCCG	-0.823 ± 0.11	0.0188 ± 0.13
CUAUAGCAAUAUUACGUCUG	0.043 ± 0.088	-0.099 ± 0.1
CUAUAGCAAUAUUACGUGGG	-3.25 ± 0.19	-2.16 ± 0.15
CUCAAGCAAUAUUACGAAAA	-3.12 ± 0.28	-2.65 ± 0.28
CUCAAGCAAUAUUACGAACC	-2.43 ± 0.39	-2.38 ± 0.28
CUCAAGCAAUAUUACGAAGA	-3.8 ± 0.25	-2.55 ± 0.2
CUCAAGCAAUAUUACGACAU	-3.206 ± 0.018	-1.9 ± 0.034
CUCAAGCAAUAUUACGAUCU	-3.53 ± 0.26	-2.59 ± 0.24
CUCAAGCAAUAUUACGCACG	-2.51 ± 0.14	-0.724 ± 0.16
CUCAAGCAAUAUUACGCAGU	-3.28 ± 0.18	-2.32 ± 0.22
CUCAAGCAAUAUUACGCCGA	–	-1.29 ± 0.34
CUCAAGCAAUAUUACGCCUG	-4.22 ± 0.31	-2.52 ± 0.24
CUCAAGCAAUAUUACGCGCC	-1.95 ± 0.32	-1.15 ± 0.26
CUCAAGCAAUAUUACGCGCU	-2.36 ± 0.18	-3.39 ± 0.32
CUCAAGCAAUAUUACGCGGG	-3.15 ± 0.25	-2.42 ± 0.25
CUCAAGCAAUAUUACGCGUG	-3.3 ± 0.21	-3.41 ± 0.43
CUCAAGCAAUAUUACGCUGA	-3.13 ± 0.18	-2.41 ± 0.2
CUCAAGCAAUAUUACGGAAG	-1.84 ± 0.11	-0.365 ± 0.12

Source: the supplement of paper PMC7877785
